Data reported in the supplement of paper PMC10065799, “High-throughput profiling of sequence recognition by tyrosine kinases and SH2 domains using bacterial peptide display” (eLife, 2023).

Experiments:
AncSZ = test: phosphorylation enrichment, bacterial display (enrichment ratio); higher = better substrate or ligand; peptides without Tyr show the background
EPHB1 = EPHB1 (UniProt P54762); test: as above
EPHB2 = EPHB2 (UniProt P29323); test: as above
FGFR1 = FGFR1 (UniProt P11362); test: as above
FGFR3 = FGFR3 (UniProt P22607); test: as above
Sequence of FGFR3 (P22607 whole entry, looked up): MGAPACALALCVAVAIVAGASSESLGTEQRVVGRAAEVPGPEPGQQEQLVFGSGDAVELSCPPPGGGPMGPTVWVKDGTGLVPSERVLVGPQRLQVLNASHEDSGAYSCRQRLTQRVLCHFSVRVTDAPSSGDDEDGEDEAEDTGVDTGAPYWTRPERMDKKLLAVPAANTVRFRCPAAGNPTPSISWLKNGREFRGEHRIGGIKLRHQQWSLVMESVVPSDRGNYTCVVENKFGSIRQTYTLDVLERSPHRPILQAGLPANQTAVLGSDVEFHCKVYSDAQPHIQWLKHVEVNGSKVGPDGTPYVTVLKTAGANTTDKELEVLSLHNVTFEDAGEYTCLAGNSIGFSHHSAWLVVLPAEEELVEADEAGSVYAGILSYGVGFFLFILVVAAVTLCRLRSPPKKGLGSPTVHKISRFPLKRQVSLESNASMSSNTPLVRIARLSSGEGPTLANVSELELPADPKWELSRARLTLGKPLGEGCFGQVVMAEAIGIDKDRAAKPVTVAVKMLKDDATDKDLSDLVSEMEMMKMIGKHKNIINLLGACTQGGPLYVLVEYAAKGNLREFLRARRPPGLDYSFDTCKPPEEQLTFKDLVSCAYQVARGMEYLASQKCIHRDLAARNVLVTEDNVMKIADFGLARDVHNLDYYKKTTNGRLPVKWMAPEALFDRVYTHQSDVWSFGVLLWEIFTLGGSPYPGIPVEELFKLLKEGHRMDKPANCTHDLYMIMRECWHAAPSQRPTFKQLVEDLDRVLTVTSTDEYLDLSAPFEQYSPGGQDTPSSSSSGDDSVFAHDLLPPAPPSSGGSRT

Fer (mouse) = test: as above
Fes = Fes (UniProt P07332); test: as above
Fyn = Fyn (UniProt P06241); test: as above
Hck = Hck (UniProt P08631); test: as above
Sequence of Hck (P08631 whole entry, looked up): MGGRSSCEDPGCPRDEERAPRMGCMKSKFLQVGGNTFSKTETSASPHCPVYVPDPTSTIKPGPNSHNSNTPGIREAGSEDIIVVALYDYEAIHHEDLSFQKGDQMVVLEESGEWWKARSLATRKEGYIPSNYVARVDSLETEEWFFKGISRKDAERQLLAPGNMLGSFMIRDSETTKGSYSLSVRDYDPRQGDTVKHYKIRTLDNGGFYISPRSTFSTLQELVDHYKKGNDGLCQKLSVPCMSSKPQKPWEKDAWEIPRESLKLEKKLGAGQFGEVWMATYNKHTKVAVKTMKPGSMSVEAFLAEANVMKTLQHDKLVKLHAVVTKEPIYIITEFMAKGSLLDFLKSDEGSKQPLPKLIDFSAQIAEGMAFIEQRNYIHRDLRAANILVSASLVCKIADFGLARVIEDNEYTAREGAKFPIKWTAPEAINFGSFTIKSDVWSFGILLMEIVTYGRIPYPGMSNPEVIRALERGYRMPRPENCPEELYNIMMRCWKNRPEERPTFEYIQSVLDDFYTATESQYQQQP

Jak2 = Jak2 (UniProt O60674); test: as above
Sequence of Jak2 (O60674 whole entry, looked up): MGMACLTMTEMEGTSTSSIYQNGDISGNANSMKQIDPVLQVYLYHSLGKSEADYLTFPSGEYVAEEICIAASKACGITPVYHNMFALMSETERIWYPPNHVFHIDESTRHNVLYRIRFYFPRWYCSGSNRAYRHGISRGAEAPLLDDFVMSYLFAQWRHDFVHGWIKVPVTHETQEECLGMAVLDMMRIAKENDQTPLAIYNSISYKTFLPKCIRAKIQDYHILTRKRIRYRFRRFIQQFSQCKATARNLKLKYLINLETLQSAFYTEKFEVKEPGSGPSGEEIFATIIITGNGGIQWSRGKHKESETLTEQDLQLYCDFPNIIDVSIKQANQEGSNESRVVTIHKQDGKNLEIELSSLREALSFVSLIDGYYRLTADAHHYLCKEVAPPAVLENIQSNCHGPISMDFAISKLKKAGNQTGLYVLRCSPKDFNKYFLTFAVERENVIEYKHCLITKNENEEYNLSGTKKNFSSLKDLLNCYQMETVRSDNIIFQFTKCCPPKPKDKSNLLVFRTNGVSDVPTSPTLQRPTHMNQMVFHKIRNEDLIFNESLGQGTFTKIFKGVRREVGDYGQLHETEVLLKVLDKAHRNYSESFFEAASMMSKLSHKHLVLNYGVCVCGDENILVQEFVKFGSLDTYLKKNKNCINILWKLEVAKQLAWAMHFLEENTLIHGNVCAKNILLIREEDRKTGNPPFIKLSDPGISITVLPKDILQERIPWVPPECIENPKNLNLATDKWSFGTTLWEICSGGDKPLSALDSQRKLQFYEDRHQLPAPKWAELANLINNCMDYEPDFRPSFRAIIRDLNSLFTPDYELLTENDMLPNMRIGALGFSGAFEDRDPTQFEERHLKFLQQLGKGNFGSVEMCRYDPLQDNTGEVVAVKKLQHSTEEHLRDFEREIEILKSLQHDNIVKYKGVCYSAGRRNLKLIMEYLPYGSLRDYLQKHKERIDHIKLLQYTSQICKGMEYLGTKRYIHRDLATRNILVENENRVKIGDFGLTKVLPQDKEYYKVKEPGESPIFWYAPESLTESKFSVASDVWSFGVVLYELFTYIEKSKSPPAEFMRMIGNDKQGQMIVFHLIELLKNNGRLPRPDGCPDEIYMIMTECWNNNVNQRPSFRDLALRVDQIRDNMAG

MERTK = MERTK (UniProt Q12866); test: as above
c-Abl (mouse) = test: as above
c-Src = test: as above
Grb2 SH2 = Grb2 SH2 (UniProt P62993); test: SH2 binding enrichment of the phosphorylated peptide, bacterial display (enrichment ratio); higher = better substrate or ligand; peptides without Tyr show the background
Sequence of Grb2 SH2 (P62993 whole entry, looked up): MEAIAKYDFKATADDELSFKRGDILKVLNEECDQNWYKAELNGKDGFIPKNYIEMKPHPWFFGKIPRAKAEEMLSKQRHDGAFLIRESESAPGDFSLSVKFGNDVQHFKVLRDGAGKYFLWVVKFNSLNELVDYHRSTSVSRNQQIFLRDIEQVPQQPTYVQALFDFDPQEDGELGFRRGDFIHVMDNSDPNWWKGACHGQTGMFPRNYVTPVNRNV

SHP2-C SH2 = test: as above
c-Src SH2 = test: as above
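Wherever SH2 binding enrichment of the phosphorylated peptide, bacterial display is given: peptide library displayed on the E. coli surface as eCPX fusions, selected cells deep-sequenced, score is each peptide's frequency after selection divided by its frequency in the input.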
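Wherever phosphorylation enrichment, bacterial display is given: 11-residue human phosphosite peptides and single-mutation variants displayed on the E. coli surface, counted by deep sequencing, each peptide's frequency after selection divided by its frequency in the unselected input library; frequency after pTyr selection over input frequency; kinase dosed for 20-30% of maximal phosphorylation in three min.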

Sequence of EPHB2 (P29323 whole entry, looked up): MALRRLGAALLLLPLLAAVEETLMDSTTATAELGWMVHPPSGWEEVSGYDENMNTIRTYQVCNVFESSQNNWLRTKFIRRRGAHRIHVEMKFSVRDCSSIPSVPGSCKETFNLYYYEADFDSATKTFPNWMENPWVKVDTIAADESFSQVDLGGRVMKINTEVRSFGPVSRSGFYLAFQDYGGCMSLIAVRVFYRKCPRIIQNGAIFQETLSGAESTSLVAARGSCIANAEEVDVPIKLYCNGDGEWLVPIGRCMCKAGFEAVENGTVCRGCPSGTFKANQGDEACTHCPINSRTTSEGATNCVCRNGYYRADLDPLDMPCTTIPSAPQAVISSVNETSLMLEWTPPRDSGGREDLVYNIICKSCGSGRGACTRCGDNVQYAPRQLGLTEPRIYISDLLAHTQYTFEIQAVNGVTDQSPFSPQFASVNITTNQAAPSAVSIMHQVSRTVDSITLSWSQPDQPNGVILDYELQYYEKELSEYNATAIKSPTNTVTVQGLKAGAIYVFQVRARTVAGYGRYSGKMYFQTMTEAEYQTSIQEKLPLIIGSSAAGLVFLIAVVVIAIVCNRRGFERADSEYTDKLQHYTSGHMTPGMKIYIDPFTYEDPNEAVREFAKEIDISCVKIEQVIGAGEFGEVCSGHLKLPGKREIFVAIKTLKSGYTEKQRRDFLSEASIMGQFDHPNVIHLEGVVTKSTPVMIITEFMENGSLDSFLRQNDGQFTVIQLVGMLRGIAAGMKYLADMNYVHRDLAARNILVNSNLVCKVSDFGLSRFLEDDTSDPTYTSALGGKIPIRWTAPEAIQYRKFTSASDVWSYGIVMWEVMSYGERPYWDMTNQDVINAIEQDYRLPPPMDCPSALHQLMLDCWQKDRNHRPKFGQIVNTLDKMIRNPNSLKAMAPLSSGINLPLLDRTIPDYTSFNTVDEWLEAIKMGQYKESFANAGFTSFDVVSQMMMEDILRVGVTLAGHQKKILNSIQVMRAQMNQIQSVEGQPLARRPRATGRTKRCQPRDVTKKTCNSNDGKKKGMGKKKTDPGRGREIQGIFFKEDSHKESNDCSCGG
Sequence of EPHB1 (P54762 whole entry, looked up): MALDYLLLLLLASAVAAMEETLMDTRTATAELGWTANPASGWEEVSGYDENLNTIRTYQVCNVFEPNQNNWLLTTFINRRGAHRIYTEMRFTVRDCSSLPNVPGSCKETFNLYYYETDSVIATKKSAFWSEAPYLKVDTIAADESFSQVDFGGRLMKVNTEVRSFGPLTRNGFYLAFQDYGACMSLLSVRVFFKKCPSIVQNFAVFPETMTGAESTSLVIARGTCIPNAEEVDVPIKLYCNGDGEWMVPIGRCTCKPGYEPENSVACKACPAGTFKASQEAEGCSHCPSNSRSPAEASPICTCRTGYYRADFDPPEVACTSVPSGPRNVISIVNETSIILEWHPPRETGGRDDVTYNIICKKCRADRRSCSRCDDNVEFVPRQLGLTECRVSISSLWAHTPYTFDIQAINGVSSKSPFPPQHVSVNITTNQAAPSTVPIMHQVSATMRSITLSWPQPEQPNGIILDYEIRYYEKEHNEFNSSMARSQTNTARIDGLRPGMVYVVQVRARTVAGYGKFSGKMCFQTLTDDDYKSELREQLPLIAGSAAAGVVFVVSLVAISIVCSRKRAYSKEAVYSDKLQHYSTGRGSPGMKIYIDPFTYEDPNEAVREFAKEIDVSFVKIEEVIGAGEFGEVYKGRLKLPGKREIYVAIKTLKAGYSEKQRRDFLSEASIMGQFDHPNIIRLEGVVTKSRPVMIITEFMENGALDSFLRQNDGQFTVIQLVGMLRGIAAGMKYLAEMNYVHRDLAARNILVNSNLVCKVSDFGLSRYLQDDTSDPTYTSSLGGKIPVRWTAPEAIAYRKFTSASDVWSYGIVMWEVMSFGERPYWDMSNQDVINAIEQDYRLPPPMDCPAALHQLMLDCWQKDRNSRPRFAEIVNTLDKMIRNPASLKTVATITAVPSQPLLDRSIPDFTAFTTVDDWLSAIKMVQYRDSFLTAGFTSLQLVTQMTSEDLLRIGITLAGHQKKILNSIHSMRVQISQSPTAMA

Row | Sequence | phosphorylation enrichment (AncSZ) | phosphorylation enrichment (EPHB1) | phosphorylation enrichment (EPHB2) | phosphorylation enrichment (FGFR1) | phosphorylation enrichment (FGFR3) | phosphorylation enrichment (Fer (mouse)) | phosphorylation enrichment (Fes) | phosphorylation enrichment (Fyn) | phosphorylation enrichment (Hck) | phosphorylation enrichment (Jak2) | phosphorylation enrichment (MERTK) | phosphorylation enrichment (c-Abl (mouse)) | phosphorylation enrichment (c-Src) | SH2 binding enrichment (Grb2 SH2) | SH2 binding enrichment (SHP2-C SH2) | SH2 binding enrichment (c-Src SH2)
1 | FRARAYGFRGP [CHGA_Y381] | 0.839 | 0.472 | 0.506 | 0.497 | 0.427 | 0.532 | 0.747 | 0.676 | 0.569 | 0.686 | 0.748 | 0.658 | 0.651 | 0.705 | 0.476 | 0.465
2 | FRARAYSFRGP [CHGA_Y381_G382S] | 0.697 | 0.48 | 0.419 | 0.538 | 0.534 | 0.456 | 0.591 | 0.418 | 0.455 | 0.628 | 0.601 | 0.573 | 0.507 | 0.597 | 0.363 | 0.573
3 | FRDALYKSMVD [PHEX_Y250_F252S_YF] | 0.792 | 0.608 | 0.614 | 0.497 | 0.642 | 0.488 | 0.97 | 0.419 | 0.476 | 0.897 | 0.484 | 0.643 | 0.365 | 0.795 | 0.735 | 0.516
4 | FRPPYYHRDCM [HGD_Y334_N337D] | 0.805 | 0.536 | 0.611 | 0.56 | 0.735 | 0.499 | 0.867 | 0.417 | 0.415 | 0.723 | 0.444 | 0.572 | 0.455 | 1.08 | 0.913 | 1.09
5 | FRQNVYIPGSN [PCDHGA1_Y895_YF] | 0.576 | 0.43 | 0.442 | 0.416 | 0.501 | 0.402 | 0.613 | 0.447 | 0.442 | 0.584 | 0.416 | 0.536 | 0.435 | 0.804 | 0.602 | 0.425
6 | FSAGTYPRMEE [SYCN_Y108_L111M] | 0.863 | 0.453 | 0.467 | 1.12 | 0.547 | 0.417 | 0.65 | 0.361 | 0.322 | 0.575 | 0.365 | 0.501 | 0.407 | 0.869 | 0.691 | 1.08
7 | FSALDYKIFFF [WDPCP_Y210_L205F_YF] | 1.57 | 0.675 | 0.54 | 0.6 | 0.981 | 0.541 | 1.64 | 0.416 | 0.504 | 1.69 | 0.468 | 1.13 | 0.67 | 0.731 | 0.401 | 0.449
8 | FSDQVYRQRRK [TH_Y230] | 0.853 | 0.557 | 0.663 | 0.474 | 0.568 | 0.551 | 0.787 | 0.615 | 0.493 | 0.658 | 0.649 | 0.735 | 0.774 | 0.634 | 0.446 | 0.421
9 | FSNVLYRPRGA [TMIGD2_Y197_YF] | 0.695 | 0.415 | 0.526 | 0.388 | 0.43 | 0.479 | 0.845 | 0.437 | 0.41 | 0.478 | 0.418 | 0.611 | 0.477 | 0.647 | 0.638 | 0.416
10 | FSQETYFRVSN [ABCD1_Y180_Q178E_YF] | 1 | 1.08 | 0.706 | 1.64 | 1.23 | 0.45 | 1.1 | 0.592 | 0.868 | 3 | 0.74 | 0.661 | 1.51 | 0.481 | 0.544 | 0.466
11 | FSTSPYLLEAA [BRIP1_Y921_YF] | 0.782 | 0.488 | 0.494 | 0.408 | 0.667 | 0.475 | 0.962 | 3.49 | 0.557 | 0.724 | 0.437 | 0.458 | 1.57 | 0.954 | 1.17 | 0.577
12 | FTAVGYHKHIT [NOMO1_Y1137] | 0.649 | 0.382 | 0.414 | 0.485 | 0.614 | 0.48 | 0.685 | 0.432 | 0.482 | 0.524 | 0.33 | 0.569 | 0.312 | 1.02 | 1.62 | 0.849
13 | FVHDNYVIRRT [CPS1_Y1450] | 0.772 | 0.376 | 0.499 | 0.4 | 0.467 | 0.435 | 0.739 | 0.446 | 0.489 | 0.714 | 0.391 | 0.418 | 0.536 | 0.655 | 0.517 | 0.416
14 | FVTSMYNEILI [TRPV1_Y310_M315I] | 1.16 | 0.684 | 0.714 | 0.733 | 0.903 | 6.66 | 1.32 | 0.682 | 1.14 | 1.01 | 1.17 | 0.686 | 0.621 | 0.929 | 1.09 | 4.5
15 | GAALAYGLDKS [HSPA9_Y230_A225G] | 0.529 | 0.337 | 0.515 | 0.389 | 0.474 | 0.411 | 0.637 | 0.483 | 0.402 | 0.493 | 0.306 | 0.487 | 0.415 | 0.786 | 0.696 | 0.488
16 | GDFLSYREFHL [ERBIN_Y1107_S1112L_YF] | 0.915 | 0.599 | 0.527 | 0.501 | 0.792 | 0.737 | 0.956 | 0.467 | 0.653 | 0.824 | 0.423 | 0.805 | 0.543 | 0.786 | 0.845 | 0.556
17 | GDKKAYVRLAP [RPL23A_Y137_E133D] | 0.603 | 0.523 | 0.435 | 0.535 | 0.497 | 0.411 | 0.58 | 0.43 | 0.482 | 0.732 | 0.638 | 0.519 | 0.449 | 0.831 | 0.757 | 0.54

Row | Sequence | phosphorylation enrichment (AncSZ) | phosphorylation enrichment (EPHB1) | phosphorylation enrichment (EPHB2) | phosphorylation enrichment (FGFR1) | phosphorylation enrichment (FGFR3) | phosphorylation enrichment (Fer (mouse)) | phosphorylation enrichment (Fes) | phosphorylation enrichment (Fyn) | phosphorylation enrichment (Hck) | phosphorylation enrichment (Jak2) | phosphorylation enrichment (MERTK) | phosphorylation enrichment (c-Abl (mouse)) | phosphorylation enrichment (c-Src) | SH2 binding enrichment (Grb2 SH2) | SH2 binding enrichment (SHP2-C SH2) | SH2 binding enrichment (c-Src SH2)
18 | GDYLSYREFHS [ERBIN_Y1107] | 2.1 | 16.8 | 23.1 | 4.66 | 3.56 | 0.414 | 0.903 | 2.8 | 2.42 | 1.54 | 0.489 | 19 | 2.48 | 0.972 | 0.539 | 0.407
19 | GDYYRYLAEVA [YWHAG_Y133] | 2.37 | 3.59 | 3.79 | 11.5 | 9.01 | 0.476 | 1.01 | 1.39 | 1.31 | 5.81 | 2.63 | 1.09 | 1.93 | 1.02 | 0.905 | 0.569
20 | GGCQEYTGAPF [NAXD_Y85_YF] | 1.17 | 0.541 | 0.618 | 0.526 | 0.8 | 0.587 | 1.14 | 0.464 | 0.506 | 0.817 | 0.456 | 0.636 | 0.528 | 0.817 | 0.576 | 0.508
21 | GGDAVYTNGAI [RFX2_Y82] | 0.654 | 0.425 | 0.486 | 0.484 | 0.532 | 0.5 | 0.638 | 1.3 | 1.34 | 0.494 | 0.359 | 0.443 | 1.09 | 0.995 | 0.594 | 0.491
22 | GGGFGYQKTKK [DDX18_Y643] | 0.328 | 0.252 | 0.318 | 0.371 | 0.422 | 0.343 | 0.52 | 0.315 | 0.379 | 0.814 | 0.308 | 0.556 | 0.3 | 1.05 | 0.808 | 0.712
23 | GGQDVYGDFGG [Probound] | 0.748 | 0.718 | 0.883 | 0.527 | 0.573 | 0.498 | 0.837 | 8.36 | 5.41 | 0.905 | 0.562 | 0.939 | 5.08 | 0.803 | 0.79 | 0.509
24 | GGSSPYSRRLA [CDK13_Y351_P356A] | 0.626 | 0.363 | 0.326 | 0.356 | 0.395 | 0.344 | 0.565 | 0.426 | 0.425 | 0.512 | 0.443 | 0.567 | 0.468 | 0.875 | 1.11 | 0.617
25 | GGTPLYMDRQG [AGXT_Y194] | 0.606 | 0.465 | 0.501 | 0.401 | 0.47 | 0.431 | 0.614 | 0.516 | 1.26 | 0.513 | 0.409 | 0.499 | 0.505 | 0.76 | 0.685 | 0.448
26 | GGTTMYPGIAD [ACTC1_Y308] | 0.854 | 0.424 | 0.419 | 0.451 | 0.576 | 0.408 | 0.722 | 0.493 | 0.437 | 0.766 | 0.418 | 0.561 | 0.484 | 0.871 | 0.783 | 0.393
27 | GHGRFYMKEAI [PGM1_Y66_D62H] | 0.684 | 0.342 | 0.418 | 0.384 | 0.59 | 0.405 | 0.754 | 0.407 | 0.404 | 0.662 | 0.305 | 0.536 | 0.36 | 1.32 | 1.21 | 1.1
28 | GHMYAYDWISI [BEST1_Y227_L224M] | 2.18 | 3.06 | 2.54 | 8.74 | 6.08 | 14.7 | 4.88 | 1.89 | 2.87 | 0.798 | 7.82 | 0.739 | 1.82 | 1.6 | 1.82 | 2.41
29 | GHPYAYDWISI [BEST1_Y227_L224P] | 1.47 | 1.65 | 1.07 | 10.1 | 6.75 | 17.5 | 2.26 | 0.929 | 1.62 | 0.794 | 8.66 | 0.661 | 1.55 | 1.1 | 1.07 | 4.11
30 | GIVEDYRPPFF [ACVRL1_Y421_YF] | 0.825 | 0.497 | 0.498 | 0.468 | 0.667 | 0.443 | 0.899 | 0.464 | 0.413 | 0.814 | 0.417 | 0.701 | 0.42 | 0.818 | 0.616 | 0.521
31 | GIVEDYRPPVY [ACVRL1_Y421_F425V] | 0.817 | 0.524 | 0.547 | 0.458 | 0.53 | 0.479 | 0.953 | 0.406 | 0.505 | 0.77 | 0.403 | 0.539 | 0.437 | 0.825 | 0.524 | 0.47
32 | GIVKAYYVRAR [AIPL1_Y267] | 1.03 | 0.398 | 0.47 | 0.461 | 0.548 | 0.407 | 0.771 | 0.394 | 0.396 | 0.706 | 0.465 | 0.558 | 0.415 | 0.858 | 0.502 | 0.464
33 | GKFFQYDTWKQ [IGF2_Y116] | 0.766 | 0.498 | 0.564 | 0.407 | 0.514 | 0.468 | 0.852 | 0.43 | 0.826 | 0.601 | 0.485 | 0.582 | 0.567 | 0.906 | 0.755 | 0.742
